Test results taken from the supplement of paper PMC12764529.
± gives the half width of the 95% confidence interval.

Assay: folding stability dG unfold from trypsin proteolysis; higher = more stable
In short: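 Digests were run with trypsin and chymotrypsin at 11 concentrations in threefold dilutions, plus a no-protease condition, on designed mini-proteins in a PA-tagged cDNA display construct. The mini-proteins were under 80 residues, had no cysteine, and were kept only when AlphaFold2 dimer inter-PAE was above 15. After sequencing, Bayesian fitting of the counts gave K50, from which unfolding free energy was derived against a sequence-predicted unfolded-state K50 and a shared folded-state K50, per protease or combined.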
With “SAGGSAGGSAGMTFVITDKNGKETTISLEEAAKLLGIPVEEITEEELKEFLEKKVKTIEKISSAGGSAGGSA [r18_403_JUSTAS]” the “folding stability dG unfold” value was 0.898 ± 0.074 kcal/mol.
With “KETVTLEFELEDGSKVRVEVDLETKEVKVEVEKPPAPPPPPVIVLPPGLTEEERERLIKELEKKGIKVVVLS [r1_242_TrROS_Hall]” the “folding stability dG unfold” value was 2.25 ± 0.13 kcal/mol.
For “SSMTTTEKKYTYNDSSISVSTTTLPDGSKLITTPITRKNPDGIDVTETLTTLDKGSGVTPVSPSTSTLNTSA [r9_554_JUSTAS]”, the “folding stability dG unfold” value was -1.24 ± 0.18 kcal/mol.
With “SAGGSAGGSAMELVVKEVEYRGPLSLSIEEIAEEIEKKEGIKVIELEEYPDEKVKITIEKVSAGGSAGGSAG [r3_66_JUSTAS]” the “folding stability dG unfold” value was -0.463 ± 0.16 kcal/mol.
With “SAGKPPPVKIEVNYRRTPDNSYRAEVQIRLPDGKPLFEVTYPFDNPDDPEARERFVRKARNLAKELANSAGG [r19_13_TrROS]” the “folding stability dG unfold” value was 1.9 ± 0.14 kcal/mol.
In the case of “SAGPWIMIPLPPELREIAKKAGMSPDDVETVEIPLKFGDREVKIEVEVMPDDGWIMVRFKSNGKEFMIPSAG [r5_545_TrROS]”, the “folding stability dG unfold” value is reported as 1.55 ± 0.1 kcal/mol.
In the case of “SAGGSAGGSAGGPTIVLKVSPEELKALEKAGVEIEKIEKNEDGELYITLTPEALKKAGFESAGGSAGGSAGG [r7_587_TrROS_Hall]”, the “folding stability dG unfold” value is reported as 2.85 ± 0.13 kcal/mol.
With “SAGGSAGGSAGGGSMTLTEVFVDPETGTRTVRTTTLYTLPNGTLTSTTTTTVEPLPGELSAGGSAGGSAGGS [r10_1258_JUSTAS]” the “folding stability dG unfold” value was 1.51 ± 0.022 kcal/mol.
In the case of “SAGGAITLEYEVETEEEAEKAIEELEKELKEKFGGPVKIEKATIEKTEDPSVPREKYRLKLTIEINKSAGGS [r8_171_JUSTAS]”, the “folding stability dG unfold” value is reported as 0.198 ± 0.13 kcal/mol.
In the case of “SGVSVKVTVEGNTITIEVSADAKIKIEVTFPTKKATYEVEVEPGKPVTFTIPLPKDVPKDAFIDKIDIGGSA [r9_1152_TrMRF]”, the “folding stability dG unfold” value is reported as 1.98 ± 0.11 kcal/mol.
In the case of “SAGGSAGGSAGGPPGAVERGYLVVRFRVYRPEPAEPVGELTVYVRVPPPEPEEDGSFRFHSAGGSAGGSAGG [r7_959_TrMRF]”, the “folding stability dG unfold” value is reported as 1.98 ± 0.025 kcal/mol.
For “SAGGSAGGSKTIVITIEPNVKTPEQLLELLKKIRELSKPGEKIVIIASPEVLEALKKAGLIEESAGGSAGGS [r12_992_TrROS_Hall]”, the “folding stability dG unfold” value was 3.2 ± 0.16 kcal/mol.
With “SAGGSIWIPIDSPEDVEEAIDFIQDFLAERGMPPGHDIKKIKVERMENGHYWVEIEFPGRKIYIWVSAGGSA [r2_120_TrROS]” the “folding stability dG unfold” value was 2.62 ± 0.049 kcal/mol.
For “SAGKKKKIKIKVKIIVNGKLKEIEIEVDENKTLEEILAEIKKKLPKNAIIIITNENGEKKIIILPKEELSAG [r5_77_TrROS_Hall]”, the “folding stability dG unfold” value was 2.49 ± 0.24 kcal/mol.
In the case of “SAGGDYVKIDFTVMIPTPEQAEEMAEEIKNFFRFMGIKEVKIKVQRNPNNGMYYVTVDIEIRMPPGAVSAGG [r19_92_TrROS]”, the “folding stability dG unfold” value is reported as 3.34 ± 0.2 kcal/mol.
In the case of “SAGGSAGGSAGGKTYTLTFKAKIEVSEDDVVVITPPNGKKLVVPKENVKVHPDGTVTVTGSAGGSAGGSAGG [r7_684_TrMRF]”, the “folding stability dG unfold” value is reported as 1.28 ± 0.097 kcal/mol.
With “SAGGSAGGSAGVRIDKDGWTIKWYNPDGEKRTFTVDSPEEAKDFLEENFPPGWRVEIEPPSAGGSAGGSAGG [r11_983_TrROS]” the “folding stability dG unfold” value was 1.11 ± 0.046 kcal/mol.
With “SAGGSAGGSEKPVLIVKVKVKNPKTKKWEEKTIEVPEGVKTPEEVAKALEKEFGDVVKVEILPSAGGSAGGS [r12_942_TrROS_Hall]” the “folding stability dG unfold” value was 1.25 ± 0.064 kcal/mol.
For “SAGGDSISDIESVNIYSFNIPSNPYPYIIAELTIPDGRKIIAIYDPSTNTVTIIIEDDGKPRIITLPASAGG [r13_960_TrMRF]”, the “folding stability dG unfold” value was 2.49 ± 0.1 kcal/mol.
For “SAGGTPVVVPATITVPVPFGAPARVTIFTPEDGHVLALIELPDGAVLVATFDPTTGELHVAPYADAASAGGS [r16_735_TrMRF]”, the “folding stability dG unfold” value was 1.19 ± 0.061 kcal/mol.
For “SAGGSSSVGVDSSDPEKTKEAILKAYGTDAEPVFTTDPATGRLTITVPETGDVHTVTAGTRTETAASAGGSA [r2_205_JUSTAS]”, the “folding stability dG unfold” value was 1.27 ± 0.042 kcal/mol.
In the case of “SAGGSAGGSAGGSITITWNPESGTVKIKPPNNKKEIEIPAENMTPSQIIDQAKDNGVEVSAGGSAGGSAGGS [r4_49_TrROS]”, the “folding stability dG unfold” value is reported as -0.0527 ± 0.12 kcal/mol.
In the case of “SAGGSAMKGLSVERVELDGEEVVRIEIETPAGGSETLELSLRDPEAVEAYLAALKAAGVIAEILPESAGGSA [r15_575_JUSTAS]”, the “folding stability dG unfold” value is reported as 1.24 ± 0.027 kcal/mol.
With “SAGGSAGGMPAEWLDEIEAPPGNYRAELYKTEKEVRIIITLPNGEKLELTFEVKPDEEILVLPGSAGGSAGG [r6_379_TrMRF]” the “folding stability dG unfold” value was 1.89 ± 0.057 kcal/mol.
For “SAGGSAGGSDKIVERLQKRFPNVRISNIQPTPDGVTIQIENPDGKEFTIPYDELEKHGIEIEPSAGGSAGGS [r12_3_TrROS]”, the “folding stability dG unfold” value was 0.217 ± 0.17 kcal/mol.
With “SAGGSAMSIPLEELIEYVKKPGYKITEKKLPNGTLEITITNPKTGKTTKVTVYPPPTFSVEIKPDPSAGGSA [r15_442_JUSTAS]” the “folding stability dG unfold” value was 1.28 ± 0.034 kcal/mol.
For “SAGGSAGGPPDIVTLPIWIGGLKVEIMVYPDGSVTIMFRFPDWYYMITFPLKNGKIEIEWVPLKSAGGSAGG [r6_555_TrROS]”, the “folding stability dG unfold” value was 3.16 ± 0.11 kcal/mol.
In the case of “SDYYIINIKIEVYYDGKPVREIPIFILVPPEQALMIAETIAEMLPGYKVKIKINVYRIPEDDPELREAFGSA [r9_782_TrROS]”, the “folding stability dG unfold” value is reported as 2.31 ± 0.077 kcal/mol.
For “SGFEVERVEVEADLDKPTVARFLLVNPDGQPIVALDPVVRLGEEALVLSVYRNPVDGELRVTARRIRLDGSA [r9_269_TrMRF]”, the “folding stability dG unfold” value was 1.1 ± 0.068 kcal/mol.
With “SAGMEELAEELAKELEGEGLKVEVEVDPETGVVTVTAYSPESVTVVTITQDPNNDAFTVNTTTYPPLLSAGG [r19_2_JUSTAS]” the “folding stability dG unfold” value was 3.07 ± 0.083 kcal/mol.
For “SMTVVIDIPPEVPVPGSGSVRPVPVEEVLKRVEEAMAKGKKVVVTGRDPKHPLVQEVAARLEELGVEVVGSA [r9_468_JUSTAS]”, the “folding stability dG unfold” value was 0.342 ± 0.029 kcal/mol.
